Experimental findings from patent US20230008090A1 (WUXI BIOLOGICS IRELAND, published 2023) are described below.

Experiment [1] concerns the target T1, human CD3 on Jurkat.2B8 (CD3+/EGFR-) cells (human, UniProt P07766 23-207).
T1 construct: whole, on cells; CD3 complex on cells; also called hCD3
The experiment is described as follows: flow cytometry on Jurkat.2B8 (CD3+/EGFR-) cells. The protocol: Binding of EGFR×CD3 bispecific antibodies to human CD3 and EGFR expressing cells was determined by flow cytometry.
(§1) After washing twice with cold PBS supplemented with 1% bovine serum albumin (wash buffer), cell surface bound antibody was detected by incubating the cells with Fluorescence-labeled anti-human IgG antibody for 30 minutes at 4° C. Cells were washed twice in the same buffer and the mean fluorescence (MFI) of stained cells was measured using a FACS Canto II cytometer (BD Biosciences). Wells containing no antibody or secondary antibody only were used to establish background fluorescence. Four-parameter non-linear regression analysis was used to obtain EC₅₀ values for cell binding using GraphPad Prism software.

Experiment [2] addresses T2, cynomolgus monkey CD3 on cynomolgus monkey PBMC / T cells (cynomolgus monkey, UniProt Q95LI5 22-198).
T2 construct: whole, on cells; CD3 complex on primary cells; also called cyno CD3
Description: flow cytometry on cyno T cells (cynomolgus monkey PBMC). The protocol:
(§2) Binding of EGFR×CD3 bispecific antibodies to cynomolgus monkey CD3 and EGFR expressing cells was determined by flow cytometry.
as §1, with “Briefly, 1×10⁵ cynomolgus monkey PBMC(CD3+/EGFR−) cells or CHOK1-cynoPro1 (EGFR+/CD3−) cells were incubated for 60 minutes at 4° C. with serial dilutions of EGFR×CD3 bispecific or hIgG4 isotype control antibodies. After” for “After”

For experiment [3], the target named is T3, cynomolgus monkey EGFR on CHOK1-cynoPro1 (EGFR+/CD3-) cells (cynomolgus monkey, UniProt A0A2K5WK39 25-1210).
T3 construct: whole, on cells; also called cyno EGFR
The experiment is described as follows: flow cytometry on CHOK1-cynoPro1 cells. The protocol: as §2
as §1, with “Briefly, 1×10⁵ cynomolgus monkey PBMC(CD3+/EGFR−) cells or CHOK1-cynoPro1 (EGFR+/CD3−) cells were incubated for 60 minutes at 4° C. with serial dilutions of EGFR×CD3 bispecific or hIgG4 isotype control antibodies. After” for “After”

Experiment [4] concerns the target T1, human CD3 on Jurkat.2B8 (CD3+/EGFR-) …. The experiment is described as follows: FACS affinity on Jurkat.2B8 cells, quantitative beads. The protocol: Tested antibodies were serially diluted in wash buffer (1×PBS/1% BSA) and incubated with cells at 4° C. for 1 h. […] The cells were then washed once and re-suspended in 1×PBS/1% BSA, and analyzed by flow cytometry. Fluorescence intensity will be converted to bound molecules/cell based on the quantitative beads (Quantum™ MESF Kits, Bangs Laboratories, Inc.).

T1 sequence (P07766 23-207): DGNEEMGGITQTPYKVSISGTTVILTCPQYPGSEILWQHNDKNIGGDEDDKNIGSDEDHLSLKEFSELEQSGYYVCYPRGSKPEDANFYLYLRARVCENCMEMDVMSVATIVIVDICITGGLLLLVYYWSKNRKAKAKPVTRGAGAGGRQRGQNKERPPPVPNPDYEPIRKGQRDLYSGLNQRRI
T2 sequence (Q95LI5 22-198): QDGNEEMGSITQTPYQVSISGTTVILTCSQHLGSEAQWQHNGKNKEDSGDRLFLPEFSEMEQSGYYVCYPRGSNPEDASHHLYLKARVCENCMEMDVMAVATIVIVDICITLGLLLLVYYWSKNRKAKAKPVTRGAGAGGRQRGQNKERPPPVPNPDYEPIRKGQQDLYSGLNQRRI

B1: W3311-2.306.4-z1-uIgG1K (antibody, V domains shown)
VH: QVQLVQSGAEVKKPGSSVKVSCKASGFAFTDYYIHWVRQAPGQGLEWMGWISPGNVNTKYNENFKGRVTITADKSTSTAYMELSSLRSEDTAVYYCARDGYSLYYFDYWGQGTLVTVSS
VL: DIVMTQSPDSLAVSLGERATINCKSSQSLLNSRTRKNYLAWYQQKPGQPPKLLIYWASTRQSGVPDRFSGSGSGTDFTLTISSLQAEDVAVYYCTQSHTLRTFGGGTKVEIK
notes: also called humanized anti-CD3 antibody; Humanized anti-CD3 mAb
As for B1, the EC50 worked out at 0.15 nM in experiment [1] and 0.21 nM in experiment [2].

B2: Panitumumab (antibody, human IgG2, V domains shown)
VH: QVQLQESGPGLVKPSETLSLTCTVSGGSVSSGDYYWTWIRQSPGKGLEWIGHIYYSGNTNYNPSLKSRLTISIDTSKTQFSLKLSSVTAADTAIYYCVRDRVTGAFDIWGQGTMVTV
VL: DIQMTQSPSSLSASVGDRVTITCQASQDISNYLNWYQQKPGKAPKLLIYDASNLETGVPSRFSGSGSGTDFTFTISSLQPEDIATYFCQHFDHLPLAFGGGTKVEIK
notes: the VH end in the benchmark IgG may differ; also called Anti-EGFR antibody; anti-EGFR mAb
The molecule B2 showed an EC50 in experiment [3] of 0.5 nM.

B3: W3448-T3U1.E17R-1.uIgG4V9 (bispecific antibody)
heavy 1: QVQLVQSGAEVKKPGSSVKVSCKASGFAFTDYYIHWVRQAPGQGLEWMGWISPGNVNTKYNENFKGRVTITADKSTSTAYMELSSLRSEDTAVYYCARDGYSLYYFDYWGQGTLVTVSSASTKGPSVFPLAPCSRSTSESTAALGCLVKDYFPEPVTVSWNSGALTSGVHTFPAVLQSSGLYSLSSVVTVPSSSLGTKTYTCNVDHKPSNTKVDKRVESKYGPPCPPCPAPEAAGGPSVFLFPPKPKDTLMISRTPEVTCVVVDVSQEDPEVQFNWYVDGVEVHNAKTKPREEQFNSTYRVVSVLTVLHQDWLNGKEYKCKVSNKGLPSSIEKTISKAKGQPREPQVYTLPPCQEEMTKNQVSLWCLVKGFYPSDIAVEWESNGQPENNYKTTPPVLDSDGSFFLYSRLTVDKSRWQEGNVFSCSVMHEALHNHYTQKSLSLSLGK
light 1: not shown
heavy 2: QVQLQESGPGLVKPSETLSLTCTVSGGSVSSGDYYWTWIRQSPGKGLEWIGHIYYSGNTNYNPSLKSRLTISIDTSKTQFSLKLSSVTAADTAIYYCVRDRVTGAFDIWGQGTMVTVLEDLKNVFPPEVAVFEPSEAEISHTQKATLVCLATGFYPDHVELSWWVNGKEVHSGVCTDPQPLKEQPALQDSRYALSSRLRVSATFWQNPRNHFRCQVQFYGLSENDEWTQDRAKPVTQIVSAEAWGRYGPPCPPCPAPEAAGGPSVFLFPPKPKDTLMISRTPEVTCVVVDVSQEDPEVQFNWYVDGVEVHNAKTKPREEQFNSTYRVVSVLTVLHQDWLNGKEYKCKVSNKGLPSSIEKTISKAKGQPREPQVCTLPPSQEEMTKNQVSLSCAVKGFYPSDIAVEWESNGQPENNYKTTPPVLDSDGSFFLVSRLTVDKSRWQEGNVFSCSVMHEALHNHYTQKSLSLSLGK
light 2: DIQMTQSPSSLSASVGDRVTITCQASQDISNYLNWYQQKPGKAPKLLIYDASNLETGVPSRFSGSGSGTDFTFTISSLQPEDIATYFCQHFDHLPLAFGGGTKVEIKPDIQNPDPAVYQLRDSKSSDKSVCLFTDFDSQTQVSQSKDSDVYITDKCVLDMRSMDFKSNSAVAWSQKSDFACANAFQNSIIPEDTFFPSPESS
notes: Four-chain Ig-like bispecific: anti-CD3 Fab arm (T3) and anti-EGFR chimeric Fab arm with TCR constant domains (U1); IgG4 Fc with S228P, F234A, L235A and knob/hole mutations already contained in the full-length entries; also called lead BsAb; anti-CD3/anti-EGFR bispecific antibody
Consider B3, for which the EC50 stood at 20.8 nM in experiment [1] and 26.4 nM in experiment [2]. Also, binding in experiment [4] was put at a Kd of 4.7 nM.
